Square brackets hold non-standard residues; d marks the D form. * marks the point of attachment. Fmoc = O=C(OCC1c2ccccc2-c2ccccc21)*; Cbz = O=C(OCc1ccccc1)*; Bz = O=C(c1ccccc1)*; βAla = NCCC(=O)O
T1: Gadd45β/MKK7 complex (biotin-hGadd45β with coated GST-MKK7, ELISA format) (human) (UniProt O75293)
T1 sequence (biotinylated (sites not stated), looked up) 1: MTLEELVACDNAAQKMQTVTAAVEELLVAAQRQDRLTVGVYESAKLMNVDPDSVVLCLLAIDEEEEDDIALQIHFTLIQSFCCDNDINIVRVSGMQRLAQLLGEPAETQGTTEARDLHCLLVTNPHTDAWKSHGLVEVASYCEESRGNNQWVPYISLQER
T1 sequence (biotinylated (sites not stated), looked up) 2: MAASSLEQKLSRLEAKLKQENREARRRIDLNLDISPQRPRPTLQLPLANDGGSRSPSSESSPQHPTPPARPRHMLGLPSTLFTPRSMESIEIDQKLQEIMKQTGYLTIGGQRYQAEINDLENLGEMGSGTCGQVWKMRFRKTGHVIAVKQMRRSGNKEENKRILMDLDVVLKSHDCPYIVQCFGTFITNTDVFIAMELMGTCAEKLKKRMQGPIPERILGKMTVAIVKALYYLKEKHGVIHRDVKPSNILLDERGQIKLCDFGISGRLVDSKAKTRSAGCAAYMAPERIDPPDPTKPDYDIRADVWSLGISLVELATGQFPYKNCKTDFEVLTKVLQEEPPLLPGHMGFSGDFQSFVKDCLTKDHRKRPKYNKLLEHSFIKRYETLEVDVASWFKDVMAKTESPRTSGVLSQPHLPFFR

T2: Gadd45β/MKK7 complex (biotin-hGadd45β with coated GST-MKK7, ELISA format) (human, UniProt O75293 1-160; O14733 1-419, biotinylated (sites not given))
T2 construct: not shown: glutathione S-transferase (GST) fusion partner
T2 sequence (looked up) 1: T1 sequence (biotinylated (sites not stated), looked up) 1
T2 sequence (looked up) 2: T1 sequence (biotinylated (sites not stated), looked up) 2

B1: Z-Tyr-Asp-His-Phe-NH2 (Z-DTP1) (peptide)
peptide: Cbz-[dY][dD][dH][dF]-NH2
B2: Ac-YDHQLys(Z)-NH2 (peptide)
peptide: Ac-YDHQK(Cbz)-NH2
SMILES: CC(=O)N[C@@H](Cc1ccc(O)cc1)C(=O)N[C@@H](CC(=O)O)C(=O)N[C@@H](Cc1c[nH]cn1)C(=O)N[C@@H](CCC(N)=O)C(=O)N[C@@H](CCCCNC(=O)OCc1ccccc1)C(N)=O
B3: Ac-AERF-NH2 (peptide)
peptide: Ac-AERF-NH2
B4: Ac-YDHFLys(Z)-NH2 (peptide)
peptide: Ac-YDHFK(Cbz)-NH2
SMILES: CC(=O)N[C@@H](Cc1ccc(O)cc1)C(=O)N[C@@H](CC(=O)O)C(=O)N[C@@H](Cc1c[nH]cn1)C(=O)N[C@@H](Cc1ccccc1)C(=O)N[C@@H](CCCCNC(=O)OCc1ccccc1)C(N)=O
B5: Benzoic acid-YDHQ-NH2 (peptide)
peptide: Bz-YDHQ-NH2
B6: Ac-YDHQ-NH2 (peptide)
peptide: Ac-YDHQ-NH2
B7: Ac-YERFLys(Z)-NH2 (peptide)
peptide: Ac-YERFK(Cbz)-NH2
SMILES: CC(=O)N[C@@H](Cc1ccc(O)cc1)C(=O)N[C@@H](CCC(=O)O)C(=O)N[C@@H](CCCNC(=N)N)C(=O)N[C@@H](Cc1ccccc1)C(=O)N[C@@H](CCCCNC(=O)OCc1ccccc1)C(N)=O
B8: Z-DTP2 (Z-D-Tyr-D-Glu-D-Arg-D-Phe-NH2) (peptide)
peptide: Cbz-[dY][dE][dR][dF]-NH2
B9: Fmoc(βAla)2-YDHF-NH2 (peptide)
peptide: {Fmoc-βAla-βAla}-YDHF-NH2
notes: also called Fmoc-LTP1
B10: Fmoc(βAla)2-YDHH-NH2 (peptide)
peptide: {Fmoc-βAla-βAla}-YDHH-NH2
SMILES: NC(=O)[C@H](Cc1c[nH]cn1)NC(=O)[C@H](Cc1c[nH]cn1)NC(=O)[C@H](CC(=O)O)NC(=O)[C@H](Cc1ccc(O)cc1)NC(=O)CCNC(=O)CCNC(=O)OCC1c2ccccc2-c2ccccc21
B11: Fmoc(βAla)2-YDHD-NH2 (peptide)
peptide: {Fmoc-βAla-βAla}-YDHD-NH2
SMILES: NC(=O)[C@H](CC(=O)O)NC(=O)[C@H](Cc1c[nH]cn1)NC(=O)[C@H](CC(=O)O)NC(=O)[C@H](Cc1ccc(O)cc1)NC(=O)CCNC(=O)CCNC(=O)OCC1c2ccccc2-c2ccccc21
B12: Fmoc(βAla)2-YDHM-NH2 (peptide)
peptide: {Fmoc-βAla-βAla}-YDHM-NH2
SMILES: CSCC[C@H](NC(=O)[C@H](Cc1c[nH]cn1)NC(=O)[C@H](CC(=O)O)NC(=O)[C@H](Cc1ccc(O)cc1)NC(=O)CCNC(=O)CCNC(=O)OCC1c2ccccc2-c2ccccc21)C(N)=O
B13: Fmoc(βAla)2-YDHP-NH2 (peptide)
peptide: {Fmoc-βAla-βAla}-YDHP-NH2
SMILES: NC(=O)[C@@H]1CCCN1C(=O)[C@H](Cc1c[nH]cn1)NC(=O)[C@H](CC(=O)O)NC(=O)[C@H](Cc1ccc(O)cc1)NC(=O)CCNC(=O)CCNC(=O)OCC1c2ccccc2-c2ccccc21
B14: Fmoc(βAla)2-YDHQ-NH2 (peptide)
peptide: {Fmoc-βAla-βAla}-YDHQ-NH2
B15: Ac-YEHF-NH2 (peptide)
peptide: Ac-YEHF-NH2
B16: Fmoc(βAla)2-YDHC-NH2 (peptide)
peptide: {Fmoc-βAla-βAla}-YDHC-NH2
SMILES: NC(=O)[C@H](CS)NC(=O)[C@H](Cc1c[nH]cn1)NC(=O)[C@H](CC(=O)O)NC(=O)[C@H](Cc1ccc(O)cc1)NC(=O)CCNC(=O)CCNC(=O)OCC1c2ccccc2-c2ccccc21
B17: Fmoc(βAla)2-YDHS-NH2 (peptide)
peptide: {Fmoc-βAla-βAla}-YDHS-NH2
SMILES: NC(=O)[C@H](CO)NC(=O)[C@H](Cc1c[nH]cn1)NC(=O)[C@H](CC(=O)O)NC(=O)[C@H](Cc1ccc(O)cc1)NC(=O)CCNC(=O)CCNC(=O)OCC1c2ccccc2-c2ccccc21
B18: Fmoc(βAla)2-YDHL-NH2 (peptide)
peptide: {Fmoc-βAla-βAla}-YDHL-NH2
SMILES: CC(C)C[C@H](NC(=O)[C@H](Cc1c[nH]cn1)NC(=O)[C@H](CC(=O)O)NC(=O)[C@H](Cc1ccc(O)cc1)NC(=O)CCNC(=O)CCNC(=O)OCC1c2ccccc2-c2ccccc21)C(N)=O
B19: Fmoc(βAla)2-YDHA-NH2 (peptide)
peptide: {Fmoc-βAla-βAla}-YDHA-NH2
SMILES: C[C@H](NC(=O)[C@H](Cc1c[nH]cn1)NC(=O)[C@H](CC(=O)O)NC(=O)[C@H](Cc1ccc(O)cc1)NC(=O)CCNC(=O)CCNC(=O)OCC1c2ccccc2-c2ccccc21)C(N)=O
B20: Fmoc(βAla)2-YDHY-NH2 (peptide)
peptide: {Fmoc-βAla-βAla}-YDHY-NH2
SMILES: NC(=O)[C@H](Cc1ccc(O)cc1)NC(=O)[C@H](Cc1c[nH]cn1)NC(=O)[C@H](CC(=O)O)NC(=O)[C@H](Cc1ccc(O)cc1)NC(=O)CCNC(=O)CCNC(=O)OCC1c2ccccc2-c2ccccc21
B21: DTP1, Acetyl-(D-Tyr)-(D-Asp)-(D-His)-(D-Phe)-NH2 (peptide)
peptide: Ac-[dY][dD][dH][dF]-NH2
SMILES: CC(=O)N[C@H](Cc1ccc(O)cc1)C(=O)N[C@H](CC(=O)O)C(=O)N[C@H](Cc1c[nH]cn1)C(=O)N[C@H](Cc1ccccc1)C(N)=O
B22: 3-OH-4MeO-Benzoid acid-YDHQ-NH2 (peptide)
peptide: {3‑OH‑4MeO‑benzoic acid}-YDHQ-NH2
modifications: not fully specified
B23: DTP2, Acetyl-(D-Tyr)-(D-Glu)-(D-Arg)-(D-Phe)-NH2 (peptide)
peptide: Ac-[dY][dE][dR][dF]-NH2
SMILES: CC(=O)N[C@H](Cc1ccc(O)cc1)C(=O)N[C@H](CCC(=O)O)C(=O)N[C@H](CCCNC(=N)N)C(=O)N[C@H](Cc1ccccc1)C(N)=O
B24: Z-YD(OMe)HQ-NH2 (peptide)
peptide: Cbz-YD(OMe)HQ-NH2
B25: Fmoc(βAla)2-YDHR-NH2 (peptide)
peptide: {Fmoc-βAla-βAla}-YDHR-NH2
SMILES: N=C(N)NCCC[C@H](NC(=O)[C@H](Cc1c[nH]cn1)NC(=O)[C@H](CC(=O)O)NC(=O)[C@H](Cc1ccc(O)cc1)NC(=O)CCNC(=O)CCNC(=O)OCC1c2ccccc2-c2ccccc21)C(N)=O

Key:
[1] = target: T1, Gadd45β/MKK7 complex (biotin-hGadd45β with coated GST-MKK7, ELISA format) (human); experiment: competition ELISA; coated MKK7 42 nM, biotin-hGadd45β 21 nM, competitor 42 nM nominal
[2] = target: T1, Gadd45β/MKK7 complex (biotin-hGadd45β with coated GST-MKK7, ELISA format) (human); experiment: competition ELISA; coated GST-MKK7, biotin-hGadd45β; single dose
[3] = target: T1, Gadd45β/MKK7 complex (biotin-hGadd45β with coated GST-MKK7, ELISA format) (human); experiment: competition ELISA; coated GST-MKK7 42 nM, biotin-hGadd45β 21 nM
[4] = target: T1, Gadd45β/MKK7 complex (biotin-hGadd45β with coated GST-MKK7, ELISA format) (human); experiment: derived from the in vitro ELISA competition IC50 (Gadd45β/MKK7)
[5] = target: T1, Gadd45β/MKK7 complex (biotin-hGadd45β with coated GST-MKK7, ELISA format) (human); experiment: competition ELISA after 48-hr pre-incubation of the peptide with human serum at 37 °C
[6] = target: T1, Gadd45β/MKK7 complex (biotin-hGadd45β with coated GST-MKK7, ELISA format) (human); experiment: ELISA competition assay: coated MKK7, soluble biotin-hGadd45β; peptide pre-incubated 48 hr with human serum at 37° C.; after 48-hr incubation with human serum at 37° C.
[7] = target: T2, Gadd45β/MKK7 complex (biotin-hGadd45β …); experiment: competition ELISA; coated MKK7 42 nM, biotin-hGadd45β 21 nM, competitor 42 nM nominal
[8] = target: T2, Gadd45β/MKK7 complex (biotin-hGadd45β …); experiment: competition ELISA; coated GST-MKK7, biotin-hGadd45β; single dose
[9] = target: T2, Gadd45β/MKK7 complex (biotin-hGadd45β …); experiment: as above; remark: listed apart in the source
[10] = target: T1, Gadd45β/MKK7 complex (biotin-hGadd45β with coated GST-MKK7, ELISA format) (human); experiment: competition ELISA; coated MKK7, biotin-hGadd45β (FIG. 3C)

Molecule	% Inhibition of Gadd45β-MKK7 binding [2]	% Inhibition of Gadd45β-MKK7 binding [7]	further results
Fmoc(βAla)2-YDHQ-NH2 as printed in row r19 of Table I			% Inhibition of Gadd45β-MKK7 binding [1]: 26%
Fmoc-YDFQ-NH2	19%		
mDTP3 (Ac-D-Tyr-D-Arg-D-Phe-NH2) (peptide)			IC50 [3]: 157 pM; Ligand Efficiency [4]: -0.24
B1			IC50 [3]: 220 pM; IC50 [5]: 190 pM; IC50 [6]: 190 pM
B2	2%		
B3	7%		
B4	8%		
B5	1%		
B6	99%		
B7	6%		
B8			IC50 [3]: 190 pM; IC50 [5]: 180 pM; Ligand Efficiency [4]: -0.26; IC50 [6]: 180 pM
B9		99%	
B10		40%	
B11		0%	
B12		14%	
B13		16%	
B14		0%	
B15			% Inhibition of Gadd45β-MKK7 binding [8]: 52%; % Inhibition of Gadd45β-MKK7 binding [9]: 23%
B16		44%	
B17		0%	
B18		33%	
B19		15%	
B20		63%	
B21			IC50 [10]: 220 pM
B22	7%		
B23			IC50 [10]: 190 pM
B24	3%		
B25			% Inhibition of Gadd45β-MKK7 binding [1]: 2%

Reference: patent US20120277164A1 (IMPERIAL INNOVATIONS, published 2012)
